± gives the standard deviation of the averaged measurements.
B1: library; a variant is named by its letters at N, in order (parent)
chain: GCUGUCACCGAGAAACUGUGAAGUAUAUCUUAAACCUGGGCACUUAAAAGAUAUAUGGAGUUAGUAGUGCAACCUGCUCGGUCUGAUGAGUCCNNNNNNGGACGAAACAGC

Tests used:
cyclic di-GMP [1] = variants of: B1; experiment: FACS-Seq fitted mean relative fluorescence mCherry/BFP without ligand (log10 relative fluorescence); HEK293T; ligand: cyclic di-GMP (c-di-GMP-II aptamer); higher = higher reporter protein expression; details: ligand present: no
Method: (§1)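 Hammerhead (sTRSV) ribozyme switch libraries with a ligand aptamer grafted on stem I and a randomized N4-6 loop II, cloned into the 3' UTR of mCherry and transiently transfected into HEK293T cells; RNA-Seq 72 h post transfection with ligand added 1 h before transfection; RNA read count / plasmid DNA read count normalized to the non-cleaving sTRSVctl (x100), log10; sequences with >100 DNA reads. FACS-Seq: lentiviral library sorted into 6 bins after 48 h ligand, log-normal fit mean of mCherry/BFP scaled to controls. Printed sequences are partial switch sequences.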

cyclic di-GMP [2] = variants of: B1; experiment: normalized RNA/DNA level without ligand (relative to sTRSVctl = 100) (log10 (% of sTRSVctl)); HEK293T; ligand: cyclic di-GMP (c-di-GMP-II aptamer); higher = less ribozyme self-cleavage, higher mRNA level; details: reporter: mCherry (pCS4076), ligand present: no
Method: as §1

cyclic di-GMP [3] = variants of: B1; experiment: FACS-Seq fitted mean relative fluorescence mCherry/BFP with ligand (log10 relative fluorescence); HEK293T; ligand: cyclic di-GMP (c-di-GMP-II aptamer); ligand concentration (+) FACS-Seq: 1 mM; higher = higher reporter protein expression; details: ligand present: yes
Method: as §1

cyclic di-GMP [4] = variants of: B1; experiment: normalized RNA/DNA level with ligand (relative to sTRSVctl = 100) (log10 (% of sTRSVctl)); HEK293T; ligand: cyclic di-GMP (c-di-GMP-II aptamer); ligand concentration (+) RNA-Seq: 1 mM; higher = less ribozyme self-cleavage, higher mRNA level; details: reporter: mCherry (pCS4076), ligand present: yes
Method: as §1

Variant	FACS-Seq fitted mean (log10) (cyclic di-GMP [1])	normalized RNA/DNA level without ligand (log10) (cyclic di-GMP [2])	FACS-Seq fitted mean (log10) (cyclic di-GMP [3])	normalized RNA/DNA level with ligand (log10) (cyclic di-GMP [4])
GAACCC	0.196 ± 0.15	1.82 ± 0.026	0.39 ± 0.019	1.91 ± 0.12
AAACUA	-0.338 ± 0.065	1.49 ± 0.031	-0.0568 ± 0.0064	1.65 ± 0.11
AAACUC	-0.854 ± 0.053	1.706 ± 0.0065	-0.744 ± 0.039	1.83 ± 0.071
AAACUG	-0.426 ± 0.0086	1.53 ± 0.039	-0.194 ± 0.0073	1.75 ± 0.092
UAAAAG	-0.3384 ± 0.0033	1.685 ± 0.0079	-0.102 ± 0.2	1.84 ± 0.1
UAACUC	-0.459 ± 0.11	1.78 ± 0.016	-0.294 ± 0.11	1.88 ± 0.085
UAACUU	-0.637 ± 0.031	1.65 ± 0.005	-0.458 ± 0.042	1.79 ± 0.12
UAACGA	-0.0411 ± 0.064	1.59 ± 0.026	0.272 ± 0.15	1.76 ± 0.089
UAACGU	-0.388 ± 0.07	1.51 ± 0.095	-0.125 ± 0.05	1.71 ± 0.12
UAACGC	-0.0408 ± 0.21	1.66 ± 0.04	0.122 ± 0.082	1.79 ± 0.17
UAACGG	-0.162 ± 0.15	1.6716 ± 2.5e-05	0.21 ± 0.0062	1.82 ± 0.1
CAACCU	-0.206 ± 0.19	1.56 ± 0.069	-0.0641 ± 0.21	1.74 ± 0.096
GAAAGA	-0.392 ± 0.037	1.41 ± 0.11	-0.0161 ± 0.058	1.57 ± 0.11
GAAAGU	-0.387 ± 0.03	1.55 ± 0.044	-0.0693 ± 0.089	1.71 ± 0.095
GAACAG	-0.182 ± 0.12	1.753 ± 0.015	0.0981 ± 0.039	1.82 ± 0.094
GAACUA	-0.288 ± 0.19	1.6 ± 0.068	0.0146 ± 0.12	1.77 ± 0.091

— the supplement of paper PMC6757056
